Experimental data from patent US20210253718A1, “FRIZZLED5 PROTEIN-BINDING AGENTS” (Modmab Therapeutics Corporation, priority 2016, published 2021).

Assays:
[1] = biological target: T1, FZD2 CRD (Homo sapiens, UniProt Q14332); assay: Flow cytometry of anti-FZD5 Fab binding to CHO cells overexpressing Frizzled CRD
T1 construct: D35-P161; GPI anchor signal (C); expressed in transfected cells; host or cells: CHO cells, lentiviral pLenti-puro
Procedure: (§1) Plasmids: pLCKO lentiviral vector used for knockout (TKO) library construction and expression of individual gRNAs was constructed as described previously (Hart et al., 2015). Briefly, single guide RNA (sgRNA) scaffold was amplified from px330 (Addgene 42230) and cloned into pLKO.TRC005 lentiviral vector (Broad Institute, Cambridge, Mass.) using AgeI/EcoRI restriction sites. BfuAI sites were added at the 5′ end of the sgRNA scaffold for cloning the TKO library or individual gRNA target sequences. Lenti Cas9-2A-BsdR vector used to generate Cas9 stable expression cell lines was constructed as described previously (Hart et al., 2015). Briefly, lentiCRISPR pXPR_001 (Addgene 49535) was modified through removal of the sgRNA scaffold region through NdeI/EcoRI digest and blunt ends generation using Large Klenow Fragment (NEB). 2A-puro was replaced with 2A-BsdR by PCR using the NheI/MluI sites. Each of the 10 human Frizzled cysteine rich domains (CRDs) were cloned into the lentiviral expression plasmid pLenti-puro in the following cassette: FZD_CRD-MYC-GPI.
(§2) Flow cytometry: Primary staining of cells was performed by treatment with 200 nM Frizzled profiler Fab. Alexa Fluor 488 AffiniPure F(ab′)2 was used as the secondary antibody (Jackson ImmunoResearch #109-546-097). c-Myc (9E10) IgG1 (primary antibody, Santa Cruz, lot #D0306) and Alexa Fluor 488 IgG (secondary antibody, Life technologies, lot #1458649) were used as controls. Dead cells were excluded by staining with Fixable Viability Dye eFluor 660 (eBioscience, catalogue number 65-0864). All reagents were used as per manufacturer's instructions. Flow cytometry was performed on a BD FACSCanto II flow cytometer (BD Biosciences), and data were analyzed with FlowJo software (FlowJo, LLC).
(§3) To confirm that the FZD5-WNT7B circuit is not driven simply by expression and rule out the possibility of a disconnect between RNA and protein levels for the Wnt receptors in HPAF-II cells, a panel of recombinant Fabs were generated, alternatively referred to herein as ‘Frizzled profiler’, that can detect and discriminate all but one of the ten Frizzled receptors. […] To characterize the binding specificity of these Fabs on cells, a panel of 10 CHO cell lines was generated, each expressing the CRD domain of a different myc-tagged Frizzled family member anchored at the plasma membrane through a GPI anchor (CHO-myc-FZDGPI). Despite the high sequence identity between Frizzled family members (FIG. 7A, FIG. 7B), selective Fabs were identified for FZD4, FZD5, FZD6 and FZD10 as assessed by immunofluorescence and flow cytometry (FIG. 7D and FIG. 8). […] The FZD8 CRD is most homologous to that of FZD5 (FIG. 7B). These Fabs can be used to discriminate expression of FZD1, FZD2, FZD4, FZD5, FZD6, FZD7, FZD8, FZD9 and FZD10 (FIG. 7D and FIG. 8). The ‘Frizzled profiler’ therefore consists of 10 different Fabs that can be used to discriminate expression of 9 different Frizzled family members. The Frizzled profiler was then used to confirm that HPAF-II cells express FZD1, FZD5, FZD6 and possibly FZD8 (FIG. 7E).
(§4) The binding of anti-FZD5 Fabs to cell surface-expressed Frizzled protein was further determined for each member of the Frizzled family via flow cytometry and immunofluorescence analysis of a panel of 10 CHO cell lines, each ectopically over-expressing the extracellular cysteine-rich domain (CRD) of a different Frizzled protein family member.

[2] = biological target: T2, FZD3 CRD (Homo sapiens, UniProt Q9NPG1); assay: as above
T2 construct: CRD of FZD1, FZD2, FZD3, FZD4, FZD5, FZD6, FZD7, FZD8, FZD9 or FZD10; GPI anchor signal (C); expressed in transfected cells; host or cells: CHO cells, lentiviral pLenti-puro
T2 sequence (Q9NPG1 23-136 limits assumed): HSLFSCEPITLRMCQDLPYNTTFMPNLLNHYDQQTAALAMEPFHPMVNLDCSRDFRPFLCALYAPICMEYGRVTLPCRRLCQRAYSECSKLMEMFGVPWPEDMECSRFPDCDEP
Procedure: as §1, §2, §3, §4

[3] = biological target: T3, FZD10 CRD (Homo sapiens, UniProt Q9ULW2); assay: as above
T3 construct: 30-156; GPI anchor signal (C); expressed in transfected cells; host or cells: CHO cells, lentiviral pLenti-puro
T3 sequence (Q9ULW2 30-156): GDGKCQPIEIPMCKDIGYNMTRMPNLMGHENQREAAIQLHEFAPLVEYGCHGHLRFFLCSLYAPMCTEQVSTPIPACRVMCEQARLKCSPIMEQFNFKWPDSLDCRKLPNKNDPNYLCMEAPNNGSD
Procedure: as §1, §2, §3, §4

[4] = biological target: T4, FZD4 CRD (Homo sapiens, UniProt Q9ULV1); assay: as above
T4 construct: E42-V167; GPI anchor signal (C); expressed in transfected cells; host or cells: CHO cells, lentiviral pLenti-puro
T4 sequence (Q9ULV1 42-167): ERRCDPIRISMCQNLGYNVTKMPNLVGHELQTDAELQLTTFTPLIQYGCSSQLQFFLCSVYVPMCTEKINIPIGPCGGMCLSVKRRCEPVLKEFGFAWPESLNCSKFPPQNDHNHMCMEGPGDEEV
Procedure: as §1, §2, §3, §4

[5] = biological target: T5, FZD7 CRD (Homo sapiens, UniProt O75084); assay: as above
T5 construct: D45-S169; GPI anchor signal (C); expressed in transfected cells; host or cells: CHO cells, lentiviral pLenti-puro
Procedure: as §1, §2, §3, §4

[6] = biological target: T6, FZD6 CRD (Homo sapiens, UniProt O60353); assay: as above
T6 construct: S20-P146; GPI anchor signal (C); expressed in transfected cells; host or cells: CHO cells, lentiviral pLenti-puro
T6 sequence (O60353 20-146): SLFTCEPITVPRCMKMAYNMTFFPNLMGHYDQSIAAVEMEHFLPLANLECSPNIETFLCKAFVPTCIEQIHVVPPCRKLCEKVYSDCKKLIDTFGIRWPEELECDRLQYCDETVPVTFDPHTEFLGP
Procedure: as §1, §2, §3, §4

[7] = biological target: T7, FZD8 CRD (Homo sapiens, UniProt Q9H461); assay: as above
T7 construct: K31-D155; GPI anchor signal (C); expressed in transfected cells; host or cells: CHO cells, lentiviral pLenti-puro
T7 sequence (Q9H461 31-155): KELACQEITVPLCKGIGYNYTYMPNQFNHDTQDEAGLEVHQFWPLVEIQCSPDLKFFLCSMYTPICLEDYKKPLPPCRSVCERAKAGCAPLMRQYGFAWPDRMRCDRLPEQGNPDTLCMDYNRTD
Procedure: as §1, §2, §3, §4

[8] = tested on: CHO cells not expressing Frizzled CRD; assay: Flow cytometry of anti-FZD5 Fab binding to CHO cells not expressing Frizzled CRD (background)
Source text: as §4

[9] = tested on: PATU8988S cells; assay: Effect of anti-FZD5 Fabs on proliferation of pancreatic cancer cell lines (percent growth inhibition); assay type: cell-based, human; conditions: Fab 2 μg/ml

Median fluorescence, Frizzled CRD overexpressed on CHO cells: FZD2 [1]: 4.7
Median fluorescence, Frizzled CRD overexpressed on CHO cells: FZD3 [2]: 3.49
Median fluorescence, Frizzled CRD overexpressed on CHO cells: FZD10 [3]: 2.59
Median fluorescence, Frizzled CRD overexpressed on CHO cells: FZD4 [4]: 3.65
Median fluorescence, Frizzled CRD overexpressed on CHO cells: FZD7 [5]: 9.14
Median fluorescence, Frizzled CRD overexpressed on CHO cells: FZD6 [6]: 2.89
Median fluorescence, Frizzled CRD overexpressed on CHO cells: FZD8 [7]: 7.43
Substance: Fab-2931: anti-FZD5 Fab with antibody variable region Fv-2931; CDR SEQ ID NOs: 35, 36, 70, 102, 146, 176 (CDR 1 QSVSSA; CDR 2 SAS; CDR 3 QQSSYSLIT; CDR 4 GFNLSYSS; CDR 5 ISPYSGST; CDR 6 ARGSYWYVGGGWWVSGHGGMDY)
Median fluorescence, Frizzled CRD overexpressed on CHO cells: None [8]: 3.11
percent growth inhibition, PATU8988s 2 μg/ml [9]: −20.00%
